Assays:
[1] = biological target: T1, ToH1 peptide of HyR3 (Candida albicans), TFEPPVV (Candida albicans); assay: ELISA on ToH1 peptides (FIG.10B)
T1 construct: also called HyR3 ToH1 peptide

[2] = biological target: T2, ToH1 peptide of Asa1 (Enterococcus faecalis), […] (Enterococcus faecalis); assay: ELISA on ToH1 peptides (FIG.10B)
[3] = biological target: T3, ToH1 peptide of OmpA (Bacteroidales), SFELPTI (Bacteroidales); assay: ELISA on ToH1 peptides (FIG.10B)
T3 construct: also called OmpA ToH1 peptide

[4] = biological target: T4, ToH1 peptide of LptF (E. coli), SPEKPTV (E. coli); assay: ELISA on ToH1 peptides (FIG.10B)
T4 construct: also called LptF ToH1 peptide

[5] = biological target: T5, ToH1 peptide of BmpC (Borrelia burgdorferi), SYERPDI (Borrelia burgdorferi); assay: ELISA on ToH1 peptides (FIG.10B)
T5 construct: also called BmpC ToH1 peptide

[6] = biological target: T1, ToH1 peptide of HyR3 (Candida …); assay: ELISA on ToH1 peptides (FIG.10A)
[7] = biological target: T2, ToH1 peptide of Asa1 (Enterococcus …); assay: ELISA on ToH1 peptides (FIG.10A)
[8] = biological target: T3, ToH1 peptide of OmpA (Bacteroidales), …; assay: ELISA on ToH1 peptides (FIG.10A)
[9] = biological target: T4, ToH1 peptide of LptF (E. coli), SPEKPTV; assay: ELISA on ToH1 peptides (FIG.10A)
[10] = biological target: T5, ToH1 peptide of BmpC (Borrelia …); assay: ELISA on ToH1 peptides (FIG.10A)
[11] = biological target: T6, E. coli FimH, wild type, on E. coli (BW25113) cells (E. coli, UniProt P08191 22-300); assay: flow cytometry and immunofluorescence of rHMGB1 on E. coli BW25113
T6 construct: whole, on cells; also called WT FimH; ∆FimHWT

Measured: binding result

T6 sequence (P08191 22-300): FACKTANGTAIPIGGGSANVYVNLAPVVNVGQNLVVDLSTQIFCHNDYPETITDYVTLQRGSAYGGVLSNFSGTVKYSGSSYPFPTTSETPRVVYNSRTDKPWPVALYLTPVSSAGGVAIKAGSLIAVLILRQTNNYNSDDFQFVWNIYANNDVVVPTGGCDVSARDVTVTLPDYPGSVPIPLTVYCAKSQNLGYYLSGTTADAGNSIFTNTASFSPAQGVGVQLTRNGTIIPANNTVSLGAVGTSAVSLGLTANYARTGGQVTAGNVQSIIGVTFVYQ

B1: F5 scFv (scFv)
scFv: EVQLVQSGPEVKKPGASVKVSCKASGFIFSNYGIGWVRQAPGQGLEWLGWISGYNGQTNYAQTVQGRVTMTADTSTTTAYMDLRNLRSDDTAIYYCARQSIPYYMDVWGKGTMVTVSSGGGGSGGGGSGGGGSGGGGASDIVMTQSPLSSPVTLGQPASISCRSSQSLVHSNGNTYLSWLHQRPGQPPRLLIYRISNRLSGVPDRFSGSGAGTDFTLKISRVEAEDVGVYYCMQAKQFPVTFGQGTRLEIKGSHHHHHH
notes: also called antibody F5
binds: [1] | [2] | [3] | [4] | [5]

B2: G6 scFv (scFv)
scFv: QVQLQQSGPGLVKPSQTLSLTCAISGDSVSSNSAAWNWIRQSPSRGLEWLGRTYYRSKWYNDYAVSVKSRITINPDTSKNQFSLQLNSVTPEDTAVYYCARRSTWGTFDYWGQGTLVTVSSGGGGSGGGGSGGGGSGGGGASDIVMTQTPDSLAVSLGERATINCKSSQSVLYSSNNKNYLAWYQQKPGQPPKLLIYWASTRESGVPDRFSGSGSGTDFTLTISSLQAEDVAVYYCQQYYALPLTFGGGTKLEIKGSHHHHHH
notes: also called antibody G6
binds: [6] | [7] | [8] | [9] | [10]

B3: Recombinant human HMGB1 (rHMGB1) (ligand)
chain: MGKGDPKKPRGKMSSYAFFVQTCREEHKKKHPDASVNFSEFSKKCSERWKTMSAKEKGKFEDMAKADKARYEREMKTYIPPKGETKKKFKDPNAPKRPPSAFFLFCSEYRPKIKGEHPGLSIGDVAKKLGEMWNNTAADDKQPYEKKAAKLKEKYEKDIAAYRAKGKPDAAKKGVVKAEKSKKKKEEEEDEEDEEDEEEEEDEEDEDEEEDDDDE
notes: also called High mobility group box 1
binds: [11]
